In paper PMC4324310:

Key:
[1] = tested on: T1, RovS (Streptococcus agalactiae NEM316), ORF:d252635c; assay: competition
T1 sequence: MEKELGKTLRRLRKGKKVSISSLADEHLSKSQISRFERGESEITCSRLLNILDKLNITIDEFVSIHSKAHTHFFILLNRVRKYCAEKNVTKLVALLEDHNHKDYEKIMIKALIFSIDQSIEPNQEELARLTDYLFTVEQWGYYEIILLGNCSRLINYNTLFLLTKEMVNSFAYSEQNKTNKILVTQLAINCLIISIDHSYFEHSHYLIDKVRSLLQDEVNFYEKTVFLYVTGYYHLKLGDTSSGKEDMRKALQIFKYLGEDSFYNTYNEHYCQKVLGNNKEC

[2] = tested on: T1, RovS (Streptococcus agalactiae NEM316), ORF:d252635c; assay: EMSA

Row | Sequence | binding [1] | binding [2] | binding ([2]; part of the binding motif deleted)
1 | ATTAGTGACTTCTTTCATTGAAAATGATAGAATATAGGTGTATGGGAAACTTCCCAAAAATATTTAAGGAGATGTTTAGAAATGACTGCAACTAAACAACATAAAAAAGTTATCCTCGTTGGTGATGGTG (double strand) [PldhL probe] | no binding | no binding | 
2 | CTAACTTTTTTTCCTTTACGTAATCTTCTTAGTGTTTTTCCTAATTCTTTTTCCATTTTTATTTAAAAGACCCTTTAAATCCATTATATAATACAAGTACAAAATAGAAAATCAGAAAGG (double strand) [Pshp without the motif probe] |  |  | no binding
3 | GCAATTTATTATTAATTTGTATGTTTAAAATTAAATAGTTGATATCTAAAACATGATATTTTTAAATTTTCCTTTAATATTATAAAGCATGATAGATAGTCATACTAACATTAAGATTTACAATGAGGTAATAGTATATT (double strand) [PfbsA probe] |  | no binding | 
